Source: article PMC4910529 (The EMBO Journal, 2016)
Numbering of substitutions follows the chain as printed. In names and notes the source's numbering stands. Where no end group is shown, it is not given here.

B1: SPOP ΔBACK (domain or fragment)
chain: KVVKFSYMWTINNFSFCREEMGEVIKSSTFSSGANDKLKWCLRVNPKGLDEESKDYLSLYLLLVSCPKSEVRAKFKFSILNAKGEETKAMESQRAYRFVQGKDWGFKKFIRRDFLLDEANGLLPDDKLTLFCEVSVVQDSVNISGQNTMNMVKVPECRLADELGGLWENSRFTDCCLCVAGQEFQAHKAILAARSPVFSAMFEHEMEESKKNRVEINDVEPEVFKEMMCFIYTGKAPNLDKMADDLLAAADKYALERLKVMCEDALCSNLSVENAAEILILADLHSADQLKTQAVDFINYHASDVLETSG
B2: SPOP^28–359 (speckle‐type POZ protein, residues 28–359) (domain or fragment)
chain: KVVKFSYMWTINNFSFCREEMGEVIKSSTFSSGANDKLKWCLRVNPKGLDEESKDYLSLYLLLVSCPKSEVRAKFKFSILNAKGEETKAMESQRAYRFVQGKDWGFKKFIRRDFLLDEANGLLPDDKLTLFCEVSVVQDSVNISGQNTMNMVKVPECRLADELGGLWENSRFTDCCLCVAGQEFQAHKAILAARSPVFSAMFEHEMEESKKNRVEINDVEPEVFKEMMCFIYTGKAPNLDKMADDLLAAADKYALERLKVMCEDALCSNLSVENAAEILILADLHSADQLKTQAVDFINYHASDVLETSGWKSMVVSHPHLVAEAYRSLASA
B3: Puc peptide, residues 91–107 of Puckered, fluorescein-labelled (peptide)
peptide: ENLACDEVTSTTSSSST-NH2
modifications: not fully specified (N-terminus)
B4: SPOP mutBACK (SPOP 28–359 Y353E) (domain or fragment)
chain: B2 chain with Y326E

Key:
[1] = target: SPOP mutBACK (SPOP 28–359 Y353E) (UniProt O43791); test: CG-MALS
[2] = target: SPOP mutBACK (SPOP 28–359 Y353E) (UniProt O43791); test: cross-linking
SPOP X‐BACK = test: CG-MALS
[3] = target: SPOP mutBTB (SPOP 28–359 L186D L190D L193D I217K) (UniProt O43791); test: AUC
[4] = target: SPOP mutBTB (SPOP 28–359 L186D L190D L193D I217K) (UniProt O43791); test: CG-MALS
cross-linking = target: the molecule itself; test: cross-linking
native MS = target: the molecule itself; test: native MS
CG-MALS = target: the molecule itself; test: CG-MALS
[5] = target: B4; test: fluorescence polarisation
[6] = target: B2; test: SEC

## SPOP mutBACK (SPOP 28–359 Y353E) (from UniProt O43791 28-359) (domain or fragment)
[1]
  stoichiometry N: 2
[2]
  stoichiometry N: 2

## SPOP X‐BACK
SPOP X‐BACK
  Kd: 118 µM

## SPOP mutBTB (SPOP 28–359 L186D L190D L193D I217K) (from UniProt O43791 28-359) (domain or fragment)
[3]
  Kd: 32.5 µM
[4]
  Kd: 36 µM
  stoichiometry N: 2

## B1
cross-linking
  stoichiometry N: 2

## B2
Native MS
  stoichiometry N: 8
CG-MALS
  Kd: 2.4 µM

## B3
[5]
  Kd: 4.1 µM

## B4
[6]
  binding result: binds
